This note sets out measurements from the supplement of paper PMC12764529.

A short description of data set [1]: folding stability dG unfold from chymotrypsin proteolysis; higher = more stable. The gist of the method:
(§1)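 K50 was inferred by Bayesian fitting of sequencing counts obtained after protease digestion of designed mini-proteins. Unfolding free energy was derived by comparison with a sequence-predicted unfolded-state K50 and a shared folded-state K50, for each protease or both combined. The mini-proteins were under 80 residues, had no cysteine, were carried in a PA-tagged cDNA display construct, and were kept only if AlphaFold2 dimer inter-PAE exceeded 15.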

Data set [2] can be described thus: folding stability dG unfold from trypsin proteolysis; higher = more stable. The gist of the method:
as §1

The nature of data set [3]: folding stability dG unfold (combined trypsin and chymotrypsin); higher = more stable. In a few lines:
as §1

± gives the half width of the 95% confidence interval. Some results are limits rather than exact numbers.

For “SAGGGSMEEARRLIEEIAEEVKAKGVKVKVRITFGPDPKVLSIEIFSPDEPIVDNGGPGLVTLTFDIPSAGG [r13_693_JUSTAS]”, the “folding stability dG unfold” value was found to be 2.778 ± 0.023 kcal/mol in data set [1], 2.07 ± 0.057 kcal/mol in data set [2] and 2.55 ± 0.063 kcal/mol in data set [3].
In the same order, the values of “SAGGGSMPASITTEVTETTTPDATVTKSTVYYPDTGKWLEETTTTGPTTTITTTKFPDGSTTVTTAASAGGS [r16_657_JUSTAS]” are -1.18 ± 0.28 kcal/mol, 0.275 ± 0.052 kcal/mol and -0.175 ± 0.11 kcal/mol.
“SAGGGSMSESLSLVEEEIKVGETVVKVKRLIYPVSGTALVEITKPGGGPIGVFNTTISPSTGGVELLSAGGS [r16_798_JUSTAS]”: the “folding stability dG unfold” value in data set [1] is -1.38 ± 0.57 kcal/mol; in data set [2], -1.04 ± 0.17 kcal/mol; in data set [3] it was less than -1 kcal/mol.
Consider “SAGGGSSSTTTSTTTTTSTSIEPLPGDREVVVTTTTTTTTTTTTTTPPDGSSTSTTTTTTTTTTTVTLASAG [r5_428_JUSTAS]”, for which the “folding stability dG unfold” value in data set [1] was 1.45 ± 0.082 kcal/mol; in data set [2], 2.57 ± 0.23 kcal/mol; in data set [3], 1.93 ± 0.13 kcal/mol.
In the same order, the values of “SAGGGSTVTTFDPSTGKTTVSIGTDPATGERTVTIVLKNGTPVTVPGPFPSVEEAEAAAAAAAAAAASAGGS [r16_319_JUSTAS]” are 0.824 ± 0.041 kcal/mol, 0.762 ± 0.043 kcal/mol and 0.818 ± 0.097 kcal/mol.
In the same order, the values of “SAGGGSVTVSLEGNTTYVRISREDGPERTYTFPQPNGEPLTFTEAPGRPGLITITRPATGEPVVLALSAGGS [r16_198_JUSTAS]” are 0.0166 ± 0.31 kcal/mol, 0.281 ± 0.18 kcal/mol and 0.219 ± 0.18 kcal/mol.
In the same order, the values of “SAGGGTFYLVVKVEKVAPNPETGELVEERLELVIPGKAPNAVSEEDLKAFVDALLPLGYKVEVELREGSAGG [r13_926_TrMRF]” are 2.07 ± 0.12 kcal/mol, 1.91 ± 0.12 kcal/mol and 2.07 ± 0.2 kcal/mol.
For “SAGGGTRTINFDSPEDAEDAIEDWPDWDKVTISVPSNGEPQSIPLKIKPPPPPKYKRDENGKPEPEPDSAGG [r13_183_TrROS]”, the “folding stability dG unfold” value was 2.95 ± 0.19 kcal/mol in data set [1], 2.08 ± 0.14 kcal/mol in data set [2] and 2.65 ± 0.25 kcal/mol in data set [3].
In the same order, the values of “SAGGGTTITLSFADGTTKTLTLPGLTEVVEEPGRVVVRADVPERRVVVTFEPATGTITVEEFAPEEPVSAGG [r13_392_JUSTAS]” are 2.27 ± 0.057 kcal/mol, 0.818 ± 0.1 kcal/mol and 1.86 ± 0.25 kcal/mol.
In the same order, the values of “SAGGGVPLTRSEPLGEIEFPEENIKLKISRYTSPLDGTEYIEITTDYGEGTSTSIYPPGEIEEILGGSAGGS [r16_603_JUSTAS]” are 1.39 ± 0.19 kcal/mol, 0.666 ± 0.12 kcal/mol and 0.909 ± 0.18 kcal/mol.
In the case of “SAGGGVTITASPDGTVTITIGGKPITVPVHPGATLEFRVEPTPDGRPAVTITWTSPDGTPYTFTFTGSAGGS [r16_231_TrMRF]”, the “folding stability dG unfold” value in data set [1] turned out to be 5.015 ± 0.036 kcal/mol; in data set [2] it was 4.23 ± 0.14 kcal/mol; in data set [3], 4.89 ± 0.053 kcal/mol.
In the same order, the values of “SAGGGVTITLKTADGKTLTLEIPGLTSVTVEPDKVTVEFEIPDYRITITFNPSTGTVEIKISHPDEPESAGG [r13_392_TrMRF]” are 3.93 ± 0.19 kcal/mol, 3.37 ± 0.19 kcal/mol and 3.8 ± 0.2 kcal/mol.
“SAGGGWKPIGKEEITLPFGIKVTVDIWTWPDGMIMIMIEIEIPVPPPKPPVPPMSPEDMKDMNEDNGSAGGS [r16_6_TrROS]”: the “folding stability dG unfold” value in data set [1] was 3.8 ± 0.24 kcal/mol; in data set [2], 2.06 ± 0.14 kcal/mol; in data set [3], 3.2 ± 0.43 kcal/mol.
In the same order, the values of “SAGGGYRAVAVFERPDGRREVVFIEFESEEEALREAEEIARRFGLRLKELRVYPVEPLPPVRPELAGSAGGS [r8_364_TrMRF]” are 5.17 ± 0.083 kcal/mol, 3.49 ± 0.089 kcal/mol and 4.88 ± 0.09 kcal/mol.
In the same order, the values of “SAGGHHHHHHHHIDGKFRSEEEAKKLKEEIEKELRAKGYTDIEVEVEVKVEEPPPRRPRPGSPAYTLGSAGG [r13_6_JUSTAS]” are 0.573 ± 0.11 kcal/mol, 1.45 ± 0.16 kcal/mol and 0.955 ± 0.34 kcal/mol.
In the same order, the values of “SAGGIDLDDLPPGDIFIFIKIKMEPVKVDDPDGKEYNRMEIEIFIFRFDPPNGKIQFEPIPMEFYIRSAGGS [r8_486_TrROS]” are 3.28 ± 0.064 kcal/mol, 2.83 ± 0.25 kcal/mol and 3.19 ± 0.23 kcal/mol.
On to “SAGGIDLSKLPKNSIVVITKVKVYPTKVGEPDGEGEGYVEVELRVFRNIPPTGKILSSPLPVKFKIASAGGS [r8_486_TrMRF]”, for which the “folding stability dG unfold” value turned out to be 0.987 ± 0.25 kcal/mol in data set [1], 1.19 ± 0.04 kcal/mol in data set [2] and 1.17 ± 0.12 kcal/mol in data set [3].
In the case of “SAGGIEELAKALGIEEVEVTSIDPETREVTVRVRVRGPDGEERTLTVKIRLEPAPPPVRTFSEEELKSSAGG [r13_608_TrROS_Hall]”, the “folding stability dG unfold” value in data set [1] stood at 1.06 ± 0.04 kcal/mol; in data set [2] it was 1.78 ± 0.029 kcal/mol; in data set [3] it was 1.45 ± 0.087 kcal/mol.
